According to the supplement of paper PMC7877785:
± gives the uncertainty stated by the source.

Test: self-splicing fitness, log relative to wild type (ln ratio); higher = more splicing; Tetrahymena group I intron in knt gene, E. coli kanamycin selection, DiMSum; sequences stand for … in CUCUCU…GGAGGGAAAAGUUAUCAGGCAUGCACCUGGUAGCUAGUCUUUAAACCAAUAGAUUGCAUCGGUUUAAAAGGCAAGACCGUCAAAUUGCGGGAAAGGGGUCAACAGCCGUUCAGUACCAAGUCUCAGGGGAAACUUUGAGAUGGCCUUGCAAAGGGUAUGGUAAUAAGCUGACGGACAUGGUCCUAACCACGCAGCCAAGUCCUAAGUCAACAGAUCUUCUGUUGAUAUGGAUGCAGUUCACAGACUAAAUGUCGGUCGGGGAAGAUGUAUUCUUCUCAUAAGAUAUAGUCGGACCUCUCCUUAAUGGGAGCUAGCGGAUGAAGUGAUGCAACACUGGAGCCGCUGGGAACUAAUUUGUAUGCGAAAGUAUAUUGAUUAGUUUUGGAGUACUCGUGGUCG
Method in brief: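 A randomised library covering all eight P1ex-region intron nucleotides was built with the intron in the knt kanamycin-resistance gene on pET-22b(+) and held in E. coli BL21(DE3). Cells were grown overnight at 37°C or 30°C on LB agar, with or without 25 μg/mL kanamycin, plus 100 μg/mL carbenicillin, 50 μM IPTG and 0.2% rhamnose, and pooled colonies were amplicon-sequenced on an Illumina HiSeq 2500. DiMSum fitness is the error-weighted combination of wild-type-normalised replicate fold changes, kanamycin versus none.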

Sequence	self-splicing fitness (ln) (30 °C)	self-splicing fitness (ln) (37 °C)
GGCAAGCAAUAUUACGAGUG	-1.1 ± 0.069	-0.88 ± 0.071
UGCUAGCAAUAUUACGCGUU	-1.7 ± 0.14	-0.563 ± 0.14
CUAUAGCAAUAUUACGAAGA	-3.01 ± 0.25	–
GAACAGCAAUAUUACGUUCG	-2.12 ± 0.099	-1.38 ± 0.096
UUCCAGCAAUAUUACGGAUG	-0.779 ± 0.058	0.293 ± 0.076
AAUUAGCAAUAUUACGCUCA	-0.656 ± 0.12	-0.204 ± 0.16
AGCUAGCAAUAUUACGUUGA	-2.68 ± 0.23	-1.69 ± 0.16
CGAAAGCAAUAUUACGUGCU	-3.73 ± 0.18	-2.41 ± 0.18
CGGUAGCAAUAUUACGUCAU	-3.21 ± 0.14	-2.56 ± 0.15
AUUAAGCAAUAUUACGGCGG	-1.18 ± 0.16	-0.145 ± 0.18
GAAGAGCAAUAUUACGGGAU	-3.63 ± 0.22	-3.16 ± 0.3
AGCAAGCAAUAUUACGCAUU	-2.57 ± 0.17	-1.45 ± 0.19
GUACAGCAAUAUUACGGAUC	-0.86 ± 0.081	-0.551 ± 0.11
GCACAGCAAUAUUACGGAUC	-0.505 ± 0.053	-0.336 ± 0.061
GGACAGCAAUAUUACGCAUG	-0.84 ± 0.085	-0.235 ± 0.11
UUUCAGCAAUAUUACGCGCC	-1.72 ± 0.24	-0.992 ± 0.37
GGCCAGCAAUAUUACGGGAU	-1.73 ± 0.097	-0.354 ± 0.1
GCGGAGCAAUAUUACGCGGA	-2.07 ± 0.33	–
GUAGAGCAAUAUUACGAGGC	-3.01 ± 0.19	-2.63 ± 0.29
CCCAAGCAAUAUUACGACAU	-3.83 ± 0.021	-2.8 ± 0.037
GGACAGCAAUAUUACGCUCG	-0.123 ± 0.086	-0.0297 ± 0.11
UGCAAGCAAUAUUACGCAUG	-3.63 ± 0.21	-2.32 ± 0.29
ACGAAGCAAUAUUACGCUCG	-1.53 ± 0.14	-1.17 ± 0.17
GCGGAGCAAUAUUACGGGAA	-2.13 ± 0.27	-2.23 ± 0.35

Sequence	self-splicing fitness (ln) (30 °C)	self-splicing fitness (ln) (37 °C)
CAACAGCAAUAUUACGGUUC	-1.89 ± 0.075	-1.34 ± 0.1
UUACAGCAAUAUUACGAAGA	-1.25 ± 0.15	-0.992 ± 0.15
GCUAAGCAAUAUUACGUUUA	-2.9 ± 0.24	-1.69 ± 0.21
UAUCAGCAAUAUUACGCAGA	-1.57 ± 0.15	-1.03 ± 0.1
UUCCAGCAAUAUUACGAGGG	-3.28 ± 0.15	-1.28 ± 0.15
AGGCAGCAAUAUUACGCGGG	-2.65 ± 0.14	-2.55 ± 0.17
UGCCAGCAAUAUUACGGCAA	-1.4 ± 0.079	-1.52 ± 0.085
CGCCAGCAAUAUUACGACAG	-0.00427 ± 0.052	0.18 ± 0.067
CAGCAGCAAUAUUACGCCCG	0.0522 ± 0.12	0.33 ± 0.12
GUUGAGCAAUAUUACGUAAC	-2.16 ± 0.42	-2.88 ± 0.3
GUCAAGCAAUAUUACGUCCA	-2.58 ± 0.25	-0.387 ± 0.12
AGGAAGCAAUAUUACGGAAG	-2.98 ± 0.25	-2.28 ± 0.39
GGAUAGCAAUAUUACGUUGC	-4.63 ± 0.36	-2.2 ± 0.28
UGUAAGCAAUAUUACGAUUG	-1 ± 0.081	-0.574 ± 0.097
AAGCAGCAAUAUUACGUAAC	-2.67 ± 0.11	-1.94 ± 0.14
GAGUAGCAAUAUUACGGUUU	-0.669 ± 0.092	-0.275 ± 0.091
CCCGAGCAAUAUUACGAUUG	-2.74 ± 0.18	-2.63 ± 0.22
GCAAAGCAAUAUUACGAAUG	-3.4 ± 0.15	-1.77 ± 0.12
GAGCAGCAAUAUUACGGAAG	-3.65 ± 0.21	-3.24 ± 0.26
AUCUAGCAAUAUUACGUAGG	-1.96 ± 0.14	-0.273 ± 0.21
GGCGAGCAAUAUUACGCACU	-2.83 ± 0.34	-1.07 ± 0.28
CAAGAGCAAUAUUACGCGGG	-2.7 ± 0.25	-2.89 ± 0.34
AAUUAGCAAUAUUACGCGGU	-3.63 ± 0.21	-1.55 ± 0.21
AACCAGCAAUAUUACGGGAG	-0.751 ± 0.036	-0.132 ± 0.051
